# Values of other authors in US6444791B1, “Methods and compositions for the treatment of keratoconus using protease inhibitors” (K-Quay Enterprises, LLC, priority 1999, dated 2002).
# Read-outs that look alike come from different tables or passages of the source. Non-standard residues stand in square brackets, D forms with d. Residues, ends and D or L forms follow the SMILES beside them. No end group written: not given here. *: point of attachment. Sta = CC(C)C[C@H](N)[C@@H](O)CC(=O)O; Isovaleryl = CC(C)CC(=O)*
# Tests used:
# [1] = biological target: T1, gelatinase, type IV collagenase (Homo sapiens, UniProt P08253); conditions: keratoconus keratocyte culture media
# T1 construct: host or cells: keratoconus keratocyte culture media (endogenous, secreted)
# T1 sequence (P08253 110-660): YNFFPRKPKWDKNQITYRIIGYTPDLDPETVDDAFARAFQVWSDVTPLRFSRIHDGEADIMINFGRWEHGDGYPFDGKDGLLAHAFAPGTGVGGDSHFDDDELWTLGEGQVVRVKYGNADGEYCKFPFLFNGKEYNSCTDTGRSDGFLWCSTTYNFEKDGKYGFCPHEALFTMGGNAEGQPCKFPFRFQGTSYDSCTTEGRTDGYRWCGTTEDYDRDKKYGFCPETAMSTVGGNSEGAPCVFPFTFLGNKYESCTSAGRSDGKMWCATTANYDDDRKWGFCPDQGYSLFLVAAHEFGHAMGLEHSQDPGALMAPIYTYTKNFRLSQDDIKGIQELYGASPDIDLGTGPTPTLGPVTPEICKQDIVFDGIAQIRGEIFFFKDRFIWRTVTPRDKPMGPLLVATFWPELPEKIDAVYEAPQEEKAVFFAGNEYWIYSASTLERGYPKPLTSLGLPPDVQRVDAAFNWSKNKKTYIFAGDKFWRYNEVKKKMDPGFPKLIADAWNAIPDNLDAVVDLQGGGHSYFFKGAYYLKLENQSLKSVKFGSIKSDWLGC
# [2] = test system: gelatinolytic and caseinolytic activities; conditions: in situ zymography, healthy control and keratoconic specimens
# proteinase-3 = biological target: T2, proteinase-3 (Homo sapiens, UniProt P24158)
# T2 sequence (P24158 28-248): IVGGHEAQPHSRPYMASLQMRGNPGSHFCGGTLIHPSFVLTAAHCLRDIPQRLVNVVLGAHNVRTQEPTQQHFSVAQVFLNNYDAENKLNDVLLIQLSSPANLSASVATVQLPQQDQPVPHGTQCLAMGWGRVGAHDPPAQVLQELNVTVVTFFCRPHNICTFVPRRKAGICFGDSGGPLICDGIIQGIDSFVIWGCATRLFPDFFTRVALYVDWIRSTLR
# elastase [3] = biological target: T3, elastase (Homo sapiens, UniProt P08246)
# T3 sequence (P08246 30-267): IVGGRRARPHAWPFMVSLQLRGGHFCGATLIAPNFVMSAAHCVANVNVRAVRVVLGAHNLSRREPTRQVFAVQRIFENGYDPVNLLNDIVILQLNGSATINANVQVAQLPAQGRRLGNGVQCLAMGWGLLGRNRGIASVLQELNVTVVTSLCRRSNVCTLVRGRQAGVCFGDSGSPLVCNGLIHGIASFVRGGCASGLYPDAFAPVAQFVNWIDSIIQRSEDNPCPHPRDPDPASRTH
# elastase [4] = biological target: T3, elastase; conditions: R-type tear fluid; from calculated molar ratios of serpins
# HIV virus = conditions: cell culture
# cathepsin G = biological target: T4, cathepsin G (Homo sapiens, UniProt P08311)
# T4 sequence (P08311 21-244): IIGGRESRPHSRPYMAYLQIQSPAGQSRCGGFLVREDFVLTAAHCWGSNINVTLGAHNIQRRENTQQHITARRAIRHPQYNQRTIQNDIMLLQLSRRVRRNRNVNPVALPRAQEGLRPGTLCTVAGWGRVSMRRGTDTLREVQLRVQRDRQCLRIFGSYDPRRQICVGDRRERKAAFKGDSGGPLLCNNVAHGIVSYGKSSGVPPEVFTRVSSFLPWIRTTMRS
molecule,measurement,setting,value
O[C@H](CS)[C@H](O)CS (racemic) [dithiothreitol],effect on gelatinolytic activity,[1],inactivated
"c1cnc2c(c1)ccc1cccnc12 [1, 10-phenanthroline]",effect on digestion of gelatin and casein,[2],failed to block
OCCS [B-mercaptoethanol],effect on gelatinolytic activity,[1],inactivated
CC(C)C[C@H](NC(=O)[C@H]1O[C@@H]1C(=O)O)C(=O)NCCCCN=C(N)N [E-64],effect on digestion of gelatin and casein,[2],substantially reduced
CC(=O)N[C@@H](CC(C)C)C(=O)N[C@@H](CC(C)C)C(=O)N[C@H](C=O)CCCNC(=N)N [leupeptin],effect on digestion of gelatin and casein,[2],substantially reduced
CC(C)CC(=O)N[C@H](C(=O)N[C@H](C(=O)N[C@@H](CC(C)C)[C@@H](O)CC(=O)N[C@@H](C)C(=O)N[C@@H](CC(C)C)[C@@H](O)CC(=O)O)C(C)C)C(C)C [pepstatin] (Isovaleryl-VV[Sta]A[Sta]-OH),effect on digestion of gelatin and casein,[2],failed to block
O=S(=O)(F)Cc1ccccc1 [phenylmethyl sulfonyl fluoride],effect on digestion of gelatin and casein,[2],substantially reduced
same,effect on gelatinolytic activity,[1]; lmM,not effected
"alp1: α-1 protease inhibitor, a major protease inhibitor in human plasma, glycoprotein of 53 kDa",inhibition of proteinase-3,proteinase-3,potent inhibitors
"elafin: protease inhibitor (6-9 kDa), potent inhibitor of proteinase-3 (AQEPVKGPVSTKPGSCPIILIRCAMLNPPNRCLKDTDCPGIKKCCEGSCGMACFVPQ; ends and bridges not checked; cysteine pairing not given here; UniProt P19957 61-117, looked up)",inhibition of proteinase-3,proteinase-3,potent inhibitors
"α2-M: α2-macroglobulin, high-molecular-weight (718 kD) homotetrameric glycoprotein protease inhibitor (protein, UniProt P01023 24-1474, looked up) Alpha-2-macroglobulin: SVSGKPQYMVLVPSLLHTETTEKGCVLLSYLNETVTVSASLESVRGNRSLFTDLEAENDVLHCVAFAVPKSSSNEEVMFLTVQVKGPTQEFKKRTTVMVKNEDSLVFVQTDKSIYKPGQTVKFRVVSMDENFHPLNELIPLVYIQDPKGNRIAQWQSFQLEGGLKQFSFPLSSEPFQGSYKVVVQKKSGGRTEHPFTVEEFVLPKFEVQVTVPKIITILEEEMNVSVCGLYTYGKPVPGHVTVSICRKYSDASDCHGEDSQAFCEKFSGQLNSHGCFYQQVKTKVFQLKRKEYEMKLHTEAQIQEEGTVVELTGRQSSEITRTITKLSFVKVDSHFRQGIPFFGQVRLVDGKGVPIPNKVIFIRGNEANYYSNATTDEHGLVQFSINTTNVMGTSLTVRVNYKDRSPCYGYQWVSEEHEEAHHTAYLVFSPSKSFVHLEPMSHELPCGHTQTVQAHYILNGGTLLGLKKLSFYYLIMAKGGIVRTGTHGLLVKQEDMKGHFSISIPVKSDIAPVARLLIYAVLPTGDVIGDSAKYDVENCLANKVDLSFSPSQSLPASHAHLRVTAAPQSVCALRAVDQSVLLMKPDAELSASSVYNLLPEKDLTGFPGPLNDQDNEDCINRHNVYINGITYTPVSSTNEKDMYSFLEDMGLKAFTNSKIRKPKMCPQLQQYEMHGPEGLRVGFYESDVMGRGHARLVHVEEPHTETVRKYFPETWIWDLVVVNSAGVAEVGVTVPDTITEWKAGAFCLSEDAGLGISSTASLRAFQPFFVELTMPYSVIRGEAFTLKATVLNYLPKCIRVSVQLEASPAFLAVPVEKEQAPHCICANGRQTVSWAVTPKSLGNVNFTVSAEALESQELCGTEVPSVPEHGRKDTVIKPLLVEPEGLEKETTFNSLLCPSGGEVSEELSLKLPPNVVEESARASVSVLGDILGSAMQNTQNLLQMPYGCGEQNMVLFAPNIYVLDYLNETQQLTPEIKSKAIGYLNTGYQRQLNYKHYDGSYSTFGERYGRNQGNTWLTAFVLKTFAQARAYIFIDEAHITQALIWLSQRQKDNGCFRSSGSLLNNAIKGGVEDEVTLSAYITIALLEIPLTVTHPVVRNALFCLESAWKTAQEGDHGSHVYTKALLAYAFALAGNQDKRKEVLKSLNEEAVKKDNSVHWERPQKPKAPVGHFYEPQAPSAEVEMTSYVLLAYLTAQPAPTSEDLTSATNIVKWITKQQNAQGGFSSTQDTVVALHALSKYGAATFTRTGKAAQVTIQSSGTFSSKFQVDNNNRLLLQQVSLPELPGEYSMKVTGEGCVYLQTSLKYNILPEKEEFPFALGVQTLPQTCDEPKAHTSFQISLSVSYTGSRSASNMAIVDVKMVSGFIPLKPTVKMLERSNHVSRTEVSSNHVLIYLDKVSNQTLSLFFTVLQDVPVRDLKPAIVKVYDYYETDEFAIAEYNAPCSKDLGNA",rate of reaction with PMN cell proteases,PMN cell proteases,relatively slow rate
"SLPI: secretory leucocyte protease inhibitor, an 11.7 kDa elastase and cathepsin G specific inhibitor (protein, UniProt P03973 26-132, looked up) Antileukoproteinase: SGKSFKAGVCPPKKSAQCLRYKKPECQSDWQCPGKKRCCPDTCGIKCLDPVDTPNPTRRKPGKCPVTYGQCLMLNPPNFCEMDGQCKRDLKCCMGMCGKSCVSPVKA",cytotoxicity to E. coli,E. coli,cytotoxic
same,cytotoxicity to Staphylococcus aureus,Staphylococcus aureus,cytotoxic
same,inhibition of elastase,elastase [3],potent inhibitor
same,inhibition of proteinase-3,proteinase-3,no capacity to inhibit
same,share of the total elastase inhibitory activity,elastase [4],≥ 95%
same,effect on transmission and replication of HIV virus,HIV virus,inhibits
same,inhibition of cathepsin G,cathepsin G,potent inhibitor
